Test results taken from US20230233607A1 (University of California, published 2023).

Columns and labels:
[1] = molecular target: LexA-CIB1 (No biLINuS); assay: cell-based or functional assay
[2] = molecular target: T1, LexA-CIB1-biLINuS; assay: cell-based or functional assay
T1 chain: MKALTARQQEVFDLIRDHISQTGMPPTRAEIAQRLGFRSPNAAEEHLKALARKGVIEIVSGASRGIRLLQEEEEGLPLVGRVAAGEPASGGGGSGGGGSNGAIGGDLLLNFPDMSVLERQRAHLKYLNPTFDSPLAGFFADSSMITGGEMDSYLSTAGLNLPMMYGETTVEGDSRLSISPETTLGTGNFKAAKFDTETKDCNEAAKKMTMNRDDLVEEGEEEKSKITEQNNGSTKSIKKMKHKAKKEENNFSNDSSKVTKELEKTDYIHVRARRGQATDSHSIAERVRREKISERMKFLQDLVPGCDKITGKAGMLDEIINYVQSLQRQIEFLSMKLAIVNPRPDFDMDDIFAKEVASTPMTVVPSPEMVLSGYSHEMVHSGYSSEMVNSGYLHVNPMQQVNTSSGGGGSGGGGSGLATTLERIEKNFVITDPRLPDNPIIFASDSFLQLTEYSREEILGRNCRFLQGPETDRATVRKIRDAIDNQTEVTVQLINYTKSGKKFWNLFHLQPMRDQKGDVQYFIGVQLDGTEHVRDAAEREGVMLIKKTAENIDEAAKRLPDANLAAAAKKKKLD

B1: CRY2PHR-VPR (other)
chain: MKMDKKTIVWFRRDLRIEDNPALAAAAHEGSVFPVFIWCPEEEGQFYPGRASRWWMKQSLAHLSQSLKALGSDLTLIKTHNTISAILDCIRVTGATKVVFNHLYDPVSLVRDHTVKEKLVERGISVQSYNGDLLYEPWEIYCEKGKPFTSFNSYWKKCLDMSIESVMLPPPWRLMPITAAAEAIWACSIEELGLENEAEKPSNALLTRAWSPGWSNADKLLNEFIEKQLIDYAKNSKKVVGNSTSLLSPYLHFGEISVRHVFQCARMKQIIWARDKNSEGEESADLFLRGIGLREYSRYICFNFPFTHEQSLLSHLRFFPWDADVDKFKAWRQGRTGYPLVDAGMRELWATGWMHNRIRVIVSSFAVKFLLLPWKWGMKYFWDTLLDADLECDILGWQYISGSIPDGHELDRLDNPALQGAKYDPEGEYIRQWLPELARLPTEWIHHPWDAPLTVLKASGVELGTNYAKPIVDIDTARELLAKAISRTREAQIMIGAAPASPKKKRKVEASSPGIRRLDALISTSLYKKAGYKEASGSGRADALDDFDLDMLGSDALDDFDLDMLGSDALDDFDLDMLGSDALDDFDLDMLINSRSSGSPKKKRKVGSQYLPDTDDRHRIEEKRKRTYETFKSIMKKSPFSGPTDPRPPPRRIAVPSRSSASVPKPAPQPYPFTSSLSTINYDEFPTMVFPSGQISQASALAPAPPQVLPQAPAPAPAPAMVSALAQAPAPVPVLAPGPPQAVAPPAPKPTQAGEGTLSEALLQLQFDDEDLGALLGNSTDPAVFTDLASVDNSEFQQLLNQGIPVAPHTTEPMLMEYPEAITRLVTGAQRPPDPAPAPLGAPGLPNGLLSGDEDFSSIADMDFSALLGSGSGSRDSREGMFLPKPEAGSAISDVFEGREVCQPKRIRPFHPPGSPWANRPLPASLAPTPTGPVHEPVGSLTPAPVPQPLDPAPAVTPEASHLLEDPDEETSQAVKALREMADTVIPQKEEAAICGQMDLSHPPPRGHLDELTTTLESMTEDLNLDSPLTPELNEILDTFLNDECLLHAMHISTGLSIFDTSLF
induction of Fluc activity normalized by Rluc upon light stimulation compared to the dark control (HEK 293T) [1]: 68 fold
increase of Fluc signal in the light-stimulated group comparing to the dark group (Jurkat cells) [2]: > 1000 fold
induction of Fluc activity normalized by Rluc upon light stimulation compared to the dark control (HEK 293T) [2]: 133 fold
mean cellular fluorescence intensity of mNeonGreen reporter, dark group, compared to the non-transfected cells (HEK 293T) [2]: 1.7 fold
mean cellular fluorescence intensity of mNeonGreen reporter, light group, compared to the non-transfected cells (HEK 293T) [2]: 61 fold
